pEC50: −log10 of the molar value. Like-named read-outs stand apart in the source and are kept apart here.
Tests used:
[1] = target: human CLDN18.2 on cells (NUGC4-hi18.2 cells; SNU601 cells in the ADCC assay) (human) (UniProt P56856); assay: cell-based or functional assay
[2] = target: human 4-1BB on the surface of HEK293-Hu4-1BB cells (human) (UniProt Q07011); assay: cell-based or functional assay
[3] = target: human 4-1BB on the surface of HEK293-Hu4-1BB cells (human) (UniProt Q07011); assay: cell-based or functional assay; remark: listed apart in the source
[4] = target: human 4-1BB on the surface of HEK293-Hu4-1BB cells (human) (UniProt Q07011); assay: flow cytometry on HEK293-Hu4-1BB cells, isotype control
[5] = target: human CD16A-V176 on CHO / CHO-K1 cells (human) (UniProt P08637); assay: flow cytometry on CHO-K1-CD16A V176 cells, isotype control
[6] = target: human 4-1BB on the surface of HEK293-Hu4-1BB cells (human) (UniProt Q07011); assay: flow cytometry on HEK293-Hu4-1BB cells, isotype control; remark: listed apart in the source
[7] = target: human CLDN18.2 on cells (NUGC4-hi18.2 cells; SNU601 cells in the ADCC assay) (human) (UniProt P56856); assay: flow cytometry on NUGC4-hi18.2 cells, isotype control
[8] = target: human 4-1BB on the surface of HEK293-Hu4-1BB cells (human) (UniProt Q07011); assay: flow cytometry on HEK293-Hu4-1BB cells, isotype control; remark: listed apart in the source
[9] = target: human CD16A-V176 on CHO / CHO-K1 cells (human) (UniProt P08637); assay: flow cytometry on CHO-K1-CD16A V176 cells
[10] = target: human CLDN18.2 on cells (NUGC4-hi18.2 cells; SNU601 cells in the ADCC assay) (human) (UniProt P56856); assay: flow cytometry on NUGC4-hi18.2 cells

Chain of human 4-1BB on the surface of HEK293-Hu4-1BB cells (human) (Q07011 24-255): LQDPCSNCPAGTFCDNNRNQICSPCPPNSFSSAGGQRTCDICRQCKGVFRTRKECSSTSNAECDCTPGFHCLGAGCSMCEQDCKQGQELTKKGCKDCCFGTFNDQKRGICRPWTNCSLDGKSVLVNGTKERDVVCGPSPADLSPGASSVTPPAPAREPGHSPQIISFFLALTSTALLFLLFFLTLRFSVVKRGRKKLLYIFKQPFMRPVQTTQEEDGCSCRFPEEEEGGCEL
Chain of human CD16A-V176 on CHO / CHO-K1 cells (human) (P08637 17-254 F176V): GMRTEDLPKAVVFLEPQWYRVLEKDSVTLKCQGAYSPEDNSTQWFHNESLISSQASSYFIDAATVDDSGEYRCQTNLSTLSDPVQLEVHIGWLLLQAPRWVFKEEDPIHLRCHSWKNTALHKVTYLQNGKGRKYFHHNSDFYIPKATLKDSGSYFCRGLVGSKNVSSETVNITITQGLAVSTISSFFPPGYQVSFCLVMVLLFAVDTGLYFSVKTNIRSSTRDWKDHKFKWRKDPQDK

What does the source list for isotype IgG1 antibody (control)?
ADCC maximum killing rate, NUGC4-hi18.2 target cells, PBMC donor S2001102 (V176) [1]: 21.8%; ADCC maximum killing rate, NUGC4-hi18.2 target cells, PBMC donor SC190061 (F176) [1]: 10.7%; ADCC maximum killing rate, SNU601 target cells, PBMC donor S2001102 (V176) [1]: 22.7%; ADCC maximum killing rate, SNU601 target cells, PBMC donor SC190061 (F176) [1]: 11.4%; ADCP maximum phagocytosis rate, macrophages against NUGC4-hi18.2 cells [1]: 19.8%; Emax, 4-1BB/NF-κB luciferase reporter, FcγRIIb cross-linking (relative to the antibody-free group) [2]: 1.12; Emax, 4-1BB/NF-κB luciferase reporter, no FcγRIIb cross-linking (relative to the antibody-free group) [2]: 1.1; Fold change in Emax, 4-1BB/NF-κB luciferase reporter, CLDN18.2 cross-linking [2]: 1.17 fold; Fold change in Emax, 4-1BB/NF-κB luciferase reporter, no CLDN18.2 cross-linking [2]: 1.16 fold; Fold change in Emax, 4-1BB/NF-κB luciferase reporter, CLDN18.2 cross-linking [3]: 1.15 fold; Fold change in Emax, 4-1BB/NF-κB luciferase reporter, no cross-linking [3]: 1.17 fold; Maximal fluorescence value [4]: 67; Maximal fluorescence value [5]: 1590; Maximal fluorescence value [6]: 123; Maximal fluorescence value [7]: 107; Maximal fluorescence value [8]: 106

With IMAB362 (antibody) as the substance, how does the pEC50 [9] read?
Its pEC50 is 7.83.

What about the Maximal fluorescence value [9] of the same substance?
Its Maximal fluorescence value is 3390.

Which Fold change in Emax, 4-1BB/NF-κB luciferase reporter, CLDN18.2 cross-linking [3] does the source give for ADG106 (antibody) here?
Its Fold change in Emax, 4-1BB/NF-κB luciferase reporter, CLDN18.2 cross-linking is 1.42 fold.

And the Fold change in Emax, 4-1BB/NF-κB luciferase reporter, no cross-linking [3]?
The Fold change in Emax, 4-1BB/NF-κB luciferase reporter, no cross-linking was 1.13 fold.

What does the source list for TJ-CD4B (bispecific antibody)?
Maximal fluorescence value [9]: 113; pEC50 [10]: 7.79; Maximal fluorescence value [10]: 89300

— patent EP4628507A1
